Legend:
Test in all cases: flow cytometry on transiently transfected cells
[1] = biological target: T1, CD27 on transiently transfected cells (UniProt P26842 20-260, limits assumed)
T1 construct: whole, on cells
T1 sequence (looked up): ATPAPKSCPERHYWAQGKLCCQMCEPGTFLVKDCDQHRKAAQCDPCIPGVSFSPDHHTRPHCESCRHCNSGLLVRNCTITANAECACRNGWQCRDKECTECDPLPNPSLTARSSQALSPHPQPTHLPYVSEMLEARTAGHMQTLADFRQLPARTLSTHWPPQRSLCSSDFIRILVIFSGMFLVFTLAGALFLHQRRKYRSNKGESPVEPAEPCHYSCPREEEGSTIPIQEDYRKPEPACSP
Experimental: (§1) One million cells, in 0.1 ml of FACS buffer (PBS, 0.1% BSA, 0.1% NaN₃), were incubated with 0.1-1 microgram of protein or antibody at RT for 15 min. The cells were washed with 3 ml of FACS buffer, reacted with biotinylated primary antibody, and stained with PE-conjugated secondary antibody at RT for 15 min. Cells were then washed again, resuspended in 0.5 microgram/ml of propidium iodide, and live cells were gated and analyzed on a FACScan using the CellQuest software (BD Biosciences).

[2] = biological target: T2, 4-1BB on transiently transfected cells (UniProt Q07011 24-255)
T2 construct: whole, on cells
Experimental: as §1

[3] = biological target: T3, HveA on transiently transfected cells (UniProt Q92956 39-283, limits assumed)
T3 construct: whole, on cells
T3 sequence (looked up): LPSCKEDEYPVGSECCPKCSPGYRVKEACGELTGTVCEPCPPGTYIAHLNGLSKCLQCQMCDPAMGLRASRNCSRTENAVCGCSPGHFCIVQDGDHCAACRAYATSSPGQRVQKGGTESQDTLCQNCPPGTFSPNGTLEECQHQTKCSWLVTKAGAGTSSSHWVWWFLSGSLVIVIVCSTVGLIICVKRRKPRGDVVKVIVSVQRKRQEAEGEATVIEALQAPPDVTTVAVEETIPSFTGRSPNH
Experimental: as §1

[4] = biological target: T4, DR4 on transiently transfected cells (UniProt O00220 24-468, limits assumed)
T4 construct: whole, on cells
T4 sequence (looked up): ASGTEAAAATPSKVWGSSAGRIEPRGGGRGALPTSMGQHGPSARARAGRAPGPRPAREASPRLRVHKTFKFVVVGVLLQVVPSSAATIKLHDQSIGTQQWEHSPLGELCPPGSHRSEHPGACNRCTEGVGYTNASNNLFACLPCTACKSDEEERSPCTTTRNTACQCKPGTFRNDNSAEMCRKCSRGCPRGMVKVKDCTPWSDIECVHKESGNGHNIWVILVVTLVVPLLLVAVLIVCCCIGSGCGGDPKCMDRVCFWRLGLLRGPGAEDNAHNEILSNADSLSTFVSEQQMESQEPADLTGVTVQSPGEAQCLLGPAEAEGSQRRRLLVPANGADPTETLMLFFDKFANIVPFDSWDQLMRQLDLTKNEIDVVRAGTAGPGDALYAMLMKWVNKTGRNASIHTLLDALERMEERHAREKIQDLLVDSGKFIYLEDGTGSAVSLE
Experimental: as §1

[5] = biological target: T5, TNFR2 on transiently transfected cells (UniProt P20333 23-461, limits assumed)
T5 construct: whole, on cells
T5 sequence (looked up): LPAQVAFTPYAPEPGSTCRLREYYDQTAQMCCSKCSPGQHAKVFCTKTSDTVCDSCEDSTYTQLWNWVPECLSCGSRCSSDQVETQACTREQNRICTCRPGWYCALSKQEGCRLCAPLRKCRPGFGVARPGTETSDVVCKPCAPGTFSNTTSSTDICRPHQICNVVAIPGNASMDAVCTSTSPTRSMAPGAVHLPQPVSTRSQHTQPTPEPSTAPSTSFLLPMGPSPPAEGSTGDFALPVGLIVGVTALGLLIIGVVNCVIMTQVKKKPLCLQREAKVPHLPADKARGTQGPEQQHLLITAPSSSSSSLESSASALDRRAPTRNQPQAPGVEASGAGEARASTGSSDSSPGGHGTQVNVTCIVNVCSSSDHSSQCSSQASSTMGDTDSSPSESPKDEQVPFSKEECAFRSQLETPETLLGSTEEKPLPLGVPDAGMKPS
Experimental: as §1

[6] = biological target: T6, LT R (LTβR) on transiently transfected cells (UniProt P36941 31-435, limits assumed)
T6 construct: whole, on cells
Experimental: as §1

[7] = biological target: T7, CD30 on transiently transfected cells (UniProt P28908 19-595, limits assumed)
T7 construct: whole, on cells
T7 sequence (looked up): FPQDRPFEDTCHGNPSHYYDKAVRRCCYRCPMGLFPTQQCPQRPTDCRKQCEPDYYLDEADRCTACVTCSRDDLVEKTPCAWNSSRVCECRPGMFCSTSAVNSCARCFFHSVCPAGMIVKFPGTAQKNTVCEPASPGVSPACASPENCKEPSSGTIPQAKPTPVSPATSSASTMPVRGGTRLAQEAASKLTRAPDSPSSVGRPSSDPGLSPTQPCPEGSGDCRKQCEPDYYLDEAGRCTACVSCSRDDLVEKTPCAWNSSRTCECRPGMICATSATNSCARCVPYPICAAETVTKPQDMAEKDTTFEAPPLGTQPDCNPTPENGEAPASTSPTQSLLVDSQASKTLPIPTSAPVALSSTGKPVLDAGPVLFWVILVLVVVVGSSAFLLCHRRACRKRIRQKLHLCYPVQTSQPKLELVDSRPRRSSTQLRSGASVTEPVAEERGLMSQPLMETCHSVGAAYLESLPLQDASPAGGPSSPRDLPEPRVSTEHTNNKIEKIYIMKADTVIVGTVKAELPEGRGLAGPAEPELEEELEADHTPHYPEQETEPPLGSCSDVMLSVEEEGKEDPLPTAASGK
Experimental: as §1

Measured: binding result

T6 sequence (P36941 31-435 limits assumed): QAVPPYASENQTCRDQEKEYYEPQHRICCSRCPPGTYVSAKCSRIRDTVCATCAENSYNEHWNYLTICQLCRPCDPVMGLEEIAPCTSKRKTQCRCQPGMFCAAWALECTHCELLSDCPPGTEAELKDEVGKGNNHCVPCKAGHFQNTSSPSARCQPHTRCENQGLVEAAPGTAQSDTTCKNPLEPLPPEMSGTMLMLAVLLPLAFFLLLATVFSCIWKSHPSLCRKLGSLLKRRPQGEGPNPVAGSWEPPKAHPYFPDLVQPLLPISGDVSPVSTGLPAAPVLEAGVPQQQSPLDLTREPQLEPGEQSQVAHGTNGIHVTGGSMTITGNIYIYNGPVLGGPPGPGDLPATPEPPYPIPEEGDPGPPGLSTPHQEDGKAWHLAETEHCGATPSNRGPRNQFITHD
T2 sequence (Q07011 24-255): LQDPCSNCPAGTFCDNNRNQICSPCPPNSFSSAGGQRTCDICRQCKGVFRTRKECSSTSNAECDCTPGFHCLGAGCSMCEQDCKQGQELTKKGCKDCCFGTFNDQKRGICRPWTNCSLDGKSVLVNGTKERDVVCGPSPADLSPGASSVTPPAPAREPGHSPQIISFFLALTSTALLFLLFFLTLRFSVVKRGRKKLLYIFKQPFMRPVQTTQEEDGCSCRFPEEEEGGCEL

B1: FLAG-tagged soluble form of TNF-gamma-beta (aa 72-251) (ligand)
chain: LKGQEFAPSHQQVYAPLRADGDKPRAHLTVVRQTPTQHFKNQFPALHWEHELGLAFTKNRMNYTNKFLLIPESGDYFIYSQVTFRGMTSECSEIRQAGRPNKPDSITVVITKVTDSYPEPTQLLMGTKSVCEVGSNWFQPIYLGAMFSLQEGDKLMVNVSDISLVDYTKEDKTFFGAFLL
notes: also called FLAG-TL1β; FLAG-TNF-gamma-beta; not shown: FLAG tag of the pFLAG-CMV-1 vector at the amino terminus
no binding: all assays above

From US20030198640A1 (Human Genome Sciences, published 2003)
